Earlier results, collected in article PMC3345106.

Target: Cys34 (UniProt position 58, QYLQQCPFEDH)
Conditions: HSA thiol in earlier reports, compared by the authors with their FA-free value

Q: With “Human serum albumin (HSA) (Homo sapiens)” as the substance, how does the pKa read?
A: The pKa was roughly 8.
